Results from publication PMC6914368 (Nature, 2019).

What was measured:
[1] = molecular target: ESX-3 core complex protomer EccB3:EccC3:EccD3:EccE3 (1:1:2:1), from pMyNT:Mini (Mycobacterium smegmatis) (UniProt A0QQ39); test: cryo-EM structure
[2] = molecular target: EccB3:EccC3:EccD3 subcomplex (Mycobacterium smegmatis) (UniProt A0QQ39); test: SEC
[3] = molecular target: ESX-3 core complex protomer EccB3:EccC3:EccD3:EccE3, from pMyNT:ESX-3 (whole gene cluster) (Mycobacterium smegmatis) (UniProt A0QQ39); test: SEC
[4] = molecular target: T1, EccC3 with C-terminal His-tag (Mycobacterium smegmatis, UniProt A0QQ40 1-1325); test: densitometry of SDS-PAGE bands
T1 sequence: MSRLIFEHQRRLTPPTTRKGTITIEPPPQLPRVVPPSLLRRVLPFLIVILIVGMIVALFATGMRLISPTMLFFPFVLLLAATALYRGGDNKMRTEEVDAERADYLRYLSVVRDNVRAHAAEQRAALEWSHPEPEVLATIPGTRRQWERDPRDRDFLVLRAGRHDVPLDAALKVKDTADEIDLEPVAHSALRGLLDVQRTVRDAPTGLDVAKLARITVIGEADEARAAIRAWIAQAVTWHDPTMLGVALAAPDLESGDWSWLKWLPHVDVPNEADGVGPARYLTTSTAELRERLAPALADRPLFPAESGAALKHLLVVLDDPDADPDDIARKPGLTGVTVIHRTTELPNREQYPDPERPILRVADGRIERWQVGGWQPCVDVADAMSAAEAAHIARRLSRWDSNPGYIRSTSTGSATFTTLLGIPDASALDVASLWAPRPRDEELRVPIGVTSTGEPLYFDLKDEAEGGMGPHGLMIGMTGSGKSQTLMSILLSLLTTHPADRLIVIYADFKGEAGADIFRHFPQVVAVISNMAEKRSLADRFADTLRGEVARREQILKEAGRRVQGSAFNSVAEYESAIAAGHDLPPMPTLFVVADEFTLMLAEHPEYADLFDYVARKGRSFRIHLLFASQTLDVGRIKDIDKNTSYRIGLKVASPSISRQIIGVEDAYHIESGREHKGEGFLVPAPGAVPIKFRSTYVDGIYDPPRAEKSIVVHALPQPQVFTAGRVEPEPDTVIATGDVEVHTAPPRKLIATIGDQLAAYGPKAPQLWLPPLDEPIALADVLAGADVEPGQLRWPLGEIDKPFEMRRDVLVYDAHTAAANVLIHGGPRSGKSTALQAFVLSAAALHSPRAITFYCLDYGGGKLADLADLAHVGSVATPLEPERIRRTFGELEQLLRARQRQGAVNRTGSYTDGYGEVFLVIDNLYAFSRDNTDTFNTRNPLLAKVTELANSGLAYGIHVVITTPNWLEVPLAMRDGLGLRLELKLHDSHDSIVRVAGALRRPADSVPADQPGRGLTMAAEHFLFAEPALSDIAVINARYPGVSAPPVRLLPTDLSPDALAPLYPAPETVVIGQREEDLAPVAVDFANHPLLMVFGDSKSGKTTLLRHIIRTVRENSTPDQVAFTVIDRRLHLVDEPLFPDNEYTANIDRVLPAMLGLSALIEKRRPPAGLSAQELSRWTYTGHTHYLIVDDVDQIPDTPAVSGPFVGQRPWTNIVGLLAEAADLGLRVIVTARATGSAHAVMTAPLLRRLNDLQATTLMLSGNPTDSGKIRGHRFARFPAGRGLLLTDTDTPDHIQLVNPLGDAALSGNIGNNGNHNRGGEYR

[5] = molecular target: the molecule itself; test: SEC-MALS
[6] = molecular target: the molecule itself; test: cryo-EM structure

## ESX-3 core complex protomer EccB3:EccC3:EccD3:EccE3 (1:1:2:1), from pMyNT:Mini (from UniProt A0QQ39;A0QQ40;A0QQ46;A0QQ48)
[1]
  stoichiometry N: 2

## EccB3:EccC3:EccD3 subcomplex (from UniProt A0QQ39;A0QQ40;A0QQ46)
[2]
  stoichiometry N: 2

## ESX-3 core complex protomer EccB3:EccC3:EccD3:EccE3, from pMyNT:ESX-3 (whole gene cluster) (from UniProt A0QQ39;A0QQ40;A0QQ46;A0QQ48)
[3]
  stoichiometry N: 2

B1: EccE3 (natural protein)
chain: MTARIALASLFVVAAVLAQPWQTTTQRWVLGVSIAAVIVLLAWWKGMFLTTRIGRALAMVRRNRAEDTVETDAHRATVVLRVDPAAPAQLPVVVGYLDRYGITCDKVRITHRDAGGTRRSWISLTVDAVDNLAALQARSARIPLQDTTEVVGRRLADHLREQGWTVTVVEGVDTPLPVSGKETWRGVADDAGVVAAYRVKVDDRLDEVLAEIGHLPAEETWTALEFTGSPAEPLLTVCAAVRTSDRPAAKAPLAGLTPARGRHRPALAALNPLSTERLDGTAVPLPAVVRTSVKGSVEHEAAQEAGHPA
[4]
  stoichiometry N: 1

B2: EccD3 with N-terminal Strep-tag II (natural protein)
chain: MSENTVMPIVRVAVLAAGDDGGRLTEMALPSELPLREILPAVQRIVQPARENDGAADPAAAPNPVRLSLAPIGGAPFSLDATLDTVGVVDGDLLALQAVPSGPPAPRIVEDIADAAVIFSEARRRQWGPTHIARGAALALIGLILVGTGLSVAHRVITGDLLGQFIVSGIALATVIAALAVRNRSAVLATSLAVTALVPVAAAFALGVPGDFGAPNVLLAAAGVAAWSLISMAGSPDDRGIAVFTATAVTGVGVLLVAGAASLWVISSDVIGCALVLLGLIVTVQAAQLSAMWARFPLPVIPAPGDPTPAARPLSVLADLPRRVRVSQAHQTGVIAAGVLLGVAGSVALVSSANASPWAWYIVVAAAAGAALRARVWDSAACKAWLLGHSYLLAVALLVAFVIGDRYQAALWALAALAVLVLVWIVAALNPKIASPDTYSLPMRRMVGFLATGLDASLIPVMALLVGLFSLVLDR
[5]
  stoichiometry N: 2
[4]
  stoichiometry N: 2

B3: EccD3 (untagged, from the ESX-3 gene cluster plasmid pMyNT:ESX-3) (natural protein)
chain: MSENTVMPIVRVAVLAAGDDGGRLTEMALPSELPLREILPAVQRIVQPARENDGAADPAAAPNPVRLSLAPIGGAPFSLDATLDTVGVVDGDLLALQAVPSGPPAPRIVEDIADAAVIFSEARRRQWGPTHIARGAALALIGLILVGTGLSVAHRVITGDLLGQFIVSGIALATVIAALAVRNRSAVLATSLAVTALVPVAAAFALGVPGDFGAPNVLLAAAGVAAWSLISMAGSPDDRGIAVFTATAVTGVGVLLVAGAASLWVISSDVIGCALVLLGLIVTVQAAQLSAMWARFPLPVIPAPGDPTPAARPLSVLADLPRRVRVSQAHQTGVIAAGVLLGVAGSVALVSSANASPWAWYIVVAAAAGAALRARVWDSAACKAWLLGHSYLLAVALLVAFVIGDRYQAALWALAALAVLVLVWIVAALNPKIASPDTYSLPMRRMVGFLATGLDASLIPVMALLVGLFSLVLDR
[4]
  stoichiometry N: 2

B4: EccB3 (natural protein)
chain: MTGPVNPDDRRSFSSRTPVNENPDGVQYRRGFVTRHQVSGWRFVMRRIASGVALHDTRMLVDPLRTQSRAVLTGALILVTGLVGCFIFSLFRPGGVPGNNAILADRSTSALYVRVGEQLHPVLNLTSARLISGSPDNPTMVKTSEIDKFPRGNLLGIPGAPERMVQNAATDAEWTVCDAVGGANPGVTVIAGPLGADGERAAPLPPDHAVLVHSDAEPNPGDWLLWDGKRSPIDLADRAVTDALGLGGQALAPRPIAAGLFNAVPAAPALTAPVIPDAGAAPQFELSLPVPVGAVVVAYDADNTARYYAVLSDGLQPISPVLAAILRNTDSHGFAQPPRLGPDEVARTPMSRGLDTSAYPDNPVTLVEASAHPVTCAHWTKPSDAAESSLSVLSGAVLPLAEGLHTVDLVGAGAGGAANRVALTPGTGYFVQTVGAEPGSPTAGSMFWVSDTGVRYGIDTAEDDKVVAALGLSTSPLPVPWSVLSQFAAGPALSRGDALVAHDAVSTNPNSARMEASR
[4]
  stoichiometry N: 1
[6]
  stoichiometry N: 2
